Our source for the Kd values is PMC12232886 (2025).

Test [1] has as its target T1, Fyn SH3 (Homo sapiens, UniProt P06241). Description: ITC. Background: Isothermal titration calorimetry measures the heat released or taken up as one component is titrated into another.
Test [2] deals with T1, Fyn SH3. As to the kind of experiment: NMR titration.

T1 sequence (P06241 79-146): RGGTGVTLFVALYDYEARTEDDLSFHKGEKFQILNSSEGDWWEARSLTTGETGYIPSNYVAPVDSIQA

B1: Tau 151-243 (protein)
chain: SGMPGAPLLPEGPREATRQPSGTGPEDTEGGRHAPELLKHQLLGDLHQEGPPLKGAGGKERPGSKEEVDEDRDVDESSPQDSPPSKASPAQDG
As usually defined, the Kd is a measure of binding affinity in units of concentration. The low end stands for tighter binding, the high end for weaker binding. On to B1, for which binding in test [1] was put at a Kd of 11 µM.

In test [2], ERPGSKEEVDEDRDV [Tau 210-224] registered a Kd of 163 µM.

For the molecule QDGRPPQTAAREATS [Tau 241-255], in test [2], the affinity, expressed as Kd, was 327 µM.

In test [2], PSGTGPEDTEGGRHA [Tau 170-184] came in with a Kd of 127 µM.
